According to patent publication US7303752B2, “Hookworm vaccine” (The George Washington University, priority 2001, dated 2007):

B1: Ay-ASP-1: A. ceylanicum secreted protein 1, SEQ ID NO: 56; Pichia pastoris expressed (protein, listed as Ancylostoma ceylanicum)
chain: FSPVVVISVVLTVAFCDASPVKASFGCSNSGITDSDRQAFLDFHNNARRRVAQGVEDNKSGKLNPAKNMYKLDWDCEMEQKLQDAIQSCPGGFAGIQGVAQNIISWSGSGGFPNPSEKINSTLASWWGGAKNNGVASDNKYTGGGLYAFSNMVFSETTKLGCAYKVCGTKLTLSCYNGIGYMTGAPMWETGQACKAGADCTTFKNSGCEDGLCTKGADVPETNQQCPSNTGMTDSVRDTFLSLHNEFRSSVARGLEPDALGGNAPKASKMLKMVYDCEVEASAIRHGNKCVYQHSHGDERPGLGENIYKTSIVKFEKNKAAKQASQLWWNELKEFGVGPSNMLTDAWNRPNMQIGHYTQMAWESTYKLGCAVIFCNDFTFGVCQYGPGGNYMNHLIYTIGQPCSECEATATCSVTEGLCSAP
B2: Ay-ASP-2: A. ceylanicum secreted protein 2, SEQ ID NO: 58; Pichia pastoris expressed (protein, listed as Ancylostoma ceylanicum)
chain: VLVPLLVLLAVSVDANSVRCGNNGMTDEARQKFLDMHNGYRSQVAKGQAKDALSGNAPKAAKMKKMVYDCGVESTAMQNAKKCVFTHSHMKGLGENIWMTTAREMDKVKSAEQASQGWFSELAEYGVGPENKLTMQLWNRPNTQIGHYTQMVWQDTYKLGCYVEWCSSMTYGVCQYSPQGNMMNSIIYEKGNPCTQDSDCGSNARCTADKALCIVHG
B3: Ay-MTP-1: A. ceylanicum astacin protease antigen, SEQ ID NO: 60 (protein, listed as Ancylostoma ceylanicum)
chain: MRVFLLVLLLAICASAGFFDTKLGEKIKKTLGKIKAALNGTLLMKIREKFIALREKIKAKLKLSPARKALLGEIMKHIIKIKKDKIQEKGDSIEEINSKSAIGELLYQGDIVLTNKQAQEIVDIEGDENDRGKRQAFRDRNYPRTLWSKGVYYYFHGNATPEVRSVFTKGARLWMKDTCIDFFESNSAPDRIRVFKEQGCWSYVGRIGGQQDLSLGKGCESVGTAAHEIGHAIGFYHTHSRHDRDNFITFNAQNVKPDWLDQFTKQTPATNENYGITYDYGSIMHYGANSASANGQPSMVPFDPKYVETLGSPIISFYELLMINKPYECTKNCDPNTSAQCKMGGFPHPRDCGRCICPSGYGGQLCDQKPSGCGSILQATAQYQNLHDKRGNEAAGQRPREDMDFCYYWITAPQGSRIEIKIADLSRGAAVDGCQYWGVEIKTHADQRLTGYRFCAPEDVGRTLVSNSNIVPIITYNFYATTVDIQYRIVGGNVGGPRPQPQPNSNCVDNEQCATLIRTKNFCQSRSFTESVKRGLCPKACGFCR

System: A. ceylanicum
Test: Hamster vaccine trial Ham V-IV with Quil A, oral challenge with 100 A. ceylanicum L3
Format: in vivo, Syrian hamster
Conditions: for Adult Hookworms, Mean: 10 hamsters per group, Quil A control 48.9; for Spleen weights, Median: Quil A control 0.45; for Spleen weights, Mean: Quil A control 0.47; for Adult Hookworms, Median: Quil A control 53.0; for Percent reduction (EPG) relative to Quil A / Percentage Hb Increase Relative to control (QuilA) / Percentage Reduction (adult hookworms) Relative to Quil A: hamster, in vivo; for EPG Mean ± SD: hookworm eggs per gram, two cages per group; for Body Weight % Reduction, Median / Body Weight % Reduction, Mean / Hb % change, Mean / Hb % change, Median: necropsy relative to time of infection; for Body Weight % Reduction, Median: Quil A control 7.8; for Body Weight % Reduction, Mean: Quil A control 7.9; for Hb % change, Mean / Hb % change, Median: minus = decrease; for Hb % change, Mean: Quil A −29.7; for Hb % change, Median: Quil A −32.5
Protocol: Brief Outline of Study Sections: Purpose bred Syrian hamsters are randomized into eight groups. Seven groups will receive candidate vaccines: ASP-1, ASP-2, MTP, and Irradiated larvae. One group receives only the adjuvant (Quil A) as experimental control. Each animal's specific antibody response is evaluated by direct ELISA using serum taken prior to the infective challenge. […] Quantitative ova counts, used to evaluate worm burden, are made from fecal samples collected twice after larval challenge. Also, hemoglobin levels will be tested to detect anemia caused by the blood loss during adult hookworm infection. The final report will evaluate the data and provide conclusions regarding each vaccine's effectiveness both in terms of worm burden and blood loss.
Test and Control Identification: The antigens are ASP-1, ASP-2, and MTP. The antigen-adjuvant combinations will be ASP-1+Quil A, ASP-2+Quil A, MTP+Quil A, ASP-1+ASP-2+Quil A, ASP-2+MTP+Quil A and ASP-1+MTP+Quil A. One group, which receives irradiated L3 serve as the positive control. The negative control group will receive only Quil A. Details about the antigen and the adjuvants will be included in the study records when they become available.
The test articles are diluted to provide a dose of 0.025 mg of antigen in 200 ul of antigen-adjuvant mixture per animal per injection. All injections will be performed intramuscularly (i.m). The prescribed volume dose information is recorded by Dr. Ghosh. Fresh preparation of antigens will be made the day of injection.
Administration of Test and Control Articles: The vaccines and adjuvant are administered intramuscularly (IM) three (3) times beginning when the hamsters are 28±2 days old. The vaccines are boosted at 21 days (3 weeks) intervals.
Challenge Infection: Ancylostoma ceylanicum larvae are cultured from the eggs collected in the feces of infected hamsters by qualified technicians in the Dr. Hotez lab. All hookworms in the infective challenge are approximately equal age (10±5 days). The species identity of the infective larva dose is validated, using PCR DNA amplification and specific oligonucleotide primers. All hamsters are infected by orally with the same dose of 100+/−10 3rd stage larvae of A. celyanicumfs. Larval challenge occurs on the same day for all hamsters (at age 82±2 days). Clinical Observations: The hamsters are observed daily and are weighed at least every 7 days post-challenge. Hamsters that develop signs of moderate to severe anemia, or develop a loss of body weight greater than 15% are observed more frequently. Prior to larvae infection and at least one time every 7-10 days, blood samples are collected from all hamsters. Blood withdrawal should be approximately equal in amount from all hamsters and at this time, the stool will be checked for blood.
A pre-vaccination blood sample will be examined for Hemoglobin; a sample of serum will be frozen. A hemoglobin test is performed 6-10 days and 12-18 days post-challenge. Samples of serum will be collected from each hamster; pre-immune, after 2 boosts, and after larval challenge. These samples will be labeled with unique identifiers (nature of the specimen, study-hamster number and collection date) and frozen for possible future analysis.
Quantitative Egg Counts (QEC): One week following parasite dosing, fecal examination for ova begins and will be repeated once a week until the study is terminated. The ova count method will be performed according to the SOP, which is a modification of the McMaster technique (Veterinary Clinical Pathology, 6th ed., 1994, page 9-10). The test will be performed the same way each time in order to quantitate the ova count. Fecal specimens from the hamsters will be identified by the hamster study number and the unique hamster identification number. The ova are counted in a McMaster chamber under a binocular microscope and recorded. […]

Molecule	Adult Hookworms, Mean	Spleen weights, Median	Spleen weights, Mean	Adult Hookworms, Median	Percent reduction (EPG) relative to Quil A	Percentage Hb Increase Relative to control (QuilA)	Percentage Reduction (adult hookworms) Relative to Quil A	EPG Mean ± SD	Body Weight % Reduction, Median	Body Weight % Reduction, Mean	Hb % change, Mean	Hb % change, Median
B1	30.9	0.48 (0.48) ± 0.10 gr	0.48 (0.48) ± 0.10 gr	36.0	59.0%	32.7%	36.8%	912.5 ± 17.7	4.4%	3.4%	−13.3%	−20.0%
B2	33.2	0.47 gr	0.44 gr	39.5	47.2%	55.2%	32.1%	1175.0 ± 176.7	4.9%	4.2%	−9.2%	−13.3%
B3	35.3	0.45 gr	0.42 gr	40.0	42.7%	59.9%	27.8%	1275.0 ± 777.8	5.4%	4.0%	−3.5%	−11.9%
